From paper PMC8131568, “A noncanonical heme oxygenase specific for the degradation of c-type heme” (The Journal of Biological Chemistry, 2021) come the findings set out here.

The series concerns the molecule itself. In words: crystal structure; Pden_1323 alone at 12 mg/ml; sitting-drop vapor diffusion; 14% glycerol, 18 to 25% PEG 4000, 0.3 M sodium acetate, 0.1 M Tris pH 8.8.

B1: Pden_1323 (enzyme, Paracoccus denitrificans PD1222)
chain: MKIDPIRETTDEARALARQLLEAARHASLGTLDPETGVPLVTRIALQTDADGVPLALLAGLAAHARALAVDPRAGLLIAAEAAKGDAMTHARLSILGRAVPAEPDENRRARWLERDPKAKVYLDLPDFRFWRIEPVSGLLNAGFGQAFKLTASDMLKPPAE
notes: Pden_1323, product of the pden_1323 gene of Paracoccus denitrificans PD1222 (opp gene cluster), codon-optimized and cloned NdeI/XhoI into pET-28b(+); HugZ homolog; also called c-type heme oxygenase; CHO; source: Superdex 200 for crystallography; not shown: His-tag, N-terminal, cleaved
In the case of B1, the binding result was “binds”.
